Experiments:
mouse CX3CR1 (mouse) [1] = target: mouse CX3CR1 (mouse) (UniProt Q9Z0D9); assay: flow cytometry, chimeric CX3CR1-expressing Ba/F3 cells
human CX3CR1 (human) [2] = target: human CX3CR1 (human) (UniProt P49238); assay: flow cytometry, chimeric CX3CR1-expressing Ba/F3 cells, 200 nM, grade vs positive antibody (+++ >70%, ++ 40-70%, + 10-40%, - <10%)
[3] = target: cynomolgus monkey CX3CR1 (cynomolgus monkey); assay: flow cytometry, CX3CR1-expressing Ba/F3 cells
human CX3CR1 (human) [4] = target: human CX3CR1 (human) (UniProt P49238); assay: flow cytometry, CX3CR1-expressing Ba/F3 cells
human CX3CR1 (human) [5] = target: human CX3CR1 (human) (UniProt P49238); assay: flow cytometry, chimeric CX3CR1-expressing Ba/F3 cells
mouse CX3CR1 (mouse) [6] = target: mouse CX3CR1 (mouse) (UniProt Q9Z0D9); assay: flow cytometry, chimeric CX3CR1-expressing Ba/F3 cells, 200 nM, grade vs positive antibody (+++ >70%, ++ 40-70%, + 10-40%, - <10%)
mouse CX3CR1 (mouse) [7] = target: mouse CX3CR1 (mouse) (UniProt Q9Z0D9); assay: flow cytometry, CX3CR1-expressing Ba/F3 cells, 200 nM, grade vs positive antibody (+++ >70%, ++ 40-70%, + 10-40%, - <10%); this antibody is itself the 100% reference
rat CX3CR1 (rat) = rat CX3CR1 (rat) (UniProt P35411); assay: as above
rat CX3CR1 (rat), sequence (P35411 whole entry): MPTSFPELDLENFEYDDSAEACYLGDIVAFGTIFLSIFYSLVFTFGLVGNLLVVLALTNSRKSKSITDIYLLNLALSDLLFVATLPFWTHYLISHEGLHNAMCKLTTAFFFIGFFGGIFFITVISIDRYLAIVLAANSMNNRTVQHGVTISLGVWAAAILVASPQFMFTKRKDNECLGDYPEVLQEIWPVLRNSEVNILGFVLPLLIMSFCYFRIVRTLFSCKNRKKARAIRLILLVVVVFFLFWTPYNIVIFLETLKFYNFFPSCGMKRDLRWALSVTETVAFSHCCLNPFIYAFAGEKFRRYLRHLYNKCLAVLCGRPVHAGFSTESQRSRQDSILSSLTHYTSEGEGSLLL

mouse CX3CR1 (mouse), sequence (Q9Z0D9 whole entry): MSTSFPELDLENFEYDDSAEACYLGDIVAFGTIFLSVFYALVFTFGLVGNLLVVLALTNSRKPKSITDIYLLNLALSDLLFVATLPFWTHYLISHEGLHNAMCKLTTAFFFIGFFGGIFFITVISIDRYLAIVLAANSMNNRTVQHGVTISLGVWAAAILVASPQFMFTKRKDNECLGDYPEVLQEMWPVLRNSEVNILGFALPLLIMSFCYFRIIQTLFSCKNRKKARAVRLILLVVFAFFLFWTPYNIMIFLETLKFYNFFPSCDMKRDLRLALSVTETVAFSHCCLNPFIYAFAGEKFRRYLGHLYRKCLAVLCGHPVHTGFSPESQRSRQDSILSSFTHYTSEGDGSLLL
human CX3CR1 (human), sequence (P49238 whole entry): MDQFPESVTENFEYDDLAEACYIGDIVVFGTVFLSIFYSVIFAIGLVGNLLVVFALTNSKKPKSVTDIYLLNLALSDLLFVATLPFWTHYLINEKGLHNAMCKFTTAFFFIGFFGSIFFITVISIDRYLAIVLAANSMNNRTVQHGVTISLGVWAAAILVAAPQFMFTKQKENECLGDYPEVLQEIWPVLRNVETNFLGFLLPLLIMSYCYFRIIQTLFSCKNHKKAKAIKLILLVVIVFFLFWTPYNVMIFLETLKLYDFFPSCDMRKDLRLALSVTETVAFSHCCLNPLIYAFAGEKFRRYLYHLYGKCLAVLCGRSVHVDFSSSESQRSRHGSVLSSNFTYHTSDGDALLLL

Substance	relative value (% reactivity, MFI) compared to positive antibody at 200 nM (mouse CX3CR1 (mouse) [1]) [%]	relative value (% reactivity, MFI) compared to positive antibody at 200 nM (human CX3CR1 (human) [2]) [%]	relative value (% reactivity, MFI) compared to positive antibody at 200 nM [3] [%]	relative value (% reactivity, MFI) compared to positive antibody at 200 nM (human CX3CR1 (human) [4]) [%]	relative value (% reactivity, MFI) compared to positive antibody at 200 nM (human CX3CR1 (human) [5]) [%]	relative value (% reactivity, MFI) compared to positive antibody at 200 nM (mouse CX3CR1 (mouse) [6]) [%]	relative value (% reactivity, MFI) compared to positive antibody at 200 nM (mouse CX3CR1 (mouse) [7]) [%]	relative value (% reactivity, MFI) compared to positive antibody at 200 nM (rat CX3CR1 (rat)) [%]
anti-hCX3CR1 antibody K0124E1 (Biolegend)	< 10	40 to 70						
anti-mouse CX3CR1 antibody SA011F11 (Biolegend)			< 10	< 10	< 10	> 70	> 70	> 70

Reference: patent publication EP4640709A1
